The results in this text go back to US20190212340A1, “AN ELISA-LIKE ASSAY FOR QUANTIFYING ENZYMATIC ACTIVITIES OF MONO-ADP-RIBOSYLTRANSFERASES” (University of Southern California, priority 2016, published 2019).

Substrate in series [1]: NC(=O)c1ccc[n+]([C@@H]2O[C@H](COP(=O)([O-])OP(=O)(O)OC[C@H]3O[C@@H](n4cnc5c(N)ncnc54)C(O)[C@H]3O)[C@H](O)C2O)c1
In words: Enzyme kinetics of PARP15-catalyzed automodification by MLISA (Experiment No. 2). The series is classed as biochemical, human. Particulars: other: 500 nM PARP15, NAD+ 5-400 μM, Michaelis-Menten fit; pH 7.4. How it is done: To characterize enzyme kinetics, 96-well plates were coated with reactions in triplicates that consist of 500 nM of PARP15 and NAD^+ at varied concentrations (5, 10, 20, 30, 40, 200, and 400 μM) in reaction buffer (50 mM Tris-HCl, pH 7.4, 2 mM DTT). The reactions were quenched with 20% ice-cold TCA at different time points (0, 2.5, 5, 7.5, 10, 12.5, 15, and 20 minutes). The plates were further incubated for up to 2 hours under room temperature followed by five washes with 200 μL of PBST. Kinetic parameters were calculated by fitting data to Michaelis-Menten model implemented in GraphPad Prism.
To determine reaction rates, standard curves were generated for each reaction plate. […] Upon additions of Coomassie Plus (Bradford) assay reagents to clear 96-well pureGrade plates, the absorbance at 595 nm of each well was measured by Synergy H1 Hybrid Multi-Mode Microplate Reader. The concentrations of automodified PARP15 were calculated through fitting to linear regression curves generated with BSA standards. Standard curves were constructed through linear correlation of the determined concentrations of automodified PARP15 with the fluorescence intensities of the corresponding wells measured on 96-well ELISA plates.

Substrate in series [2]: NC(=O)c1ccc[n+]([C@@H]2O[C@H](COP(=O)([O-])OP(=O)(O)OC[C@H]3O[C@@H](n4cnc5c(N)ncnc54)C(O)[C@H]3O)[C@H](O)C2O)c1
In words: Km determination of PARP15 automodification by M2-based ELISA (Experiment No. 1). It counts as biochemical, human. Particulars: other: 500 nM PARP15, NAD+ 5 μM to 4 mM; pH 7.4. As for the experimental part:
96-well ELISA plates were coated with reactions in triplicates consisting of 500 nM PARP15 with various concentrations of NAD^+ (5, 10, 20, 30, 40, 200, 400, 1000, 2000 and 4000 μM) in Reaction Buffer (50 mM Tris-HCl, pH 7.4, 2 mM dTT). The reactions were quenched with 20% ice-cold TCA at various time points (0 to 20 minutes). The plates were further incubated for up to 2 hour under room temperature followed by five washes of PBST.
PARP15 automodification assay was performed by adding 50 μg/ml PARP15 to Reaction Buffer with 500 μM NAD^+ in a microcentrifuge tube for 2 hours. Automodified PARP15 was diluted and plated simultaneously on both the ELISA plate and clear pureGrade plate according to manufacturer's protocol. Upon addition of Coomassie Plus (Bradford) Assay Reagent the absorbance of each well was measured on a Synergy H1 Hybrid Multi-Mode Microplate Reader (BioTek, VT). The concentrations of automodified PARP15 in each well were determined through linear regression curve using BSA standards. A standard curve was constructed through a linear correlation of automodified PARP15 concentrations and the corresponding fluorescence signals.

B1: PARP15 (Homo sapiens) (protein)
chain: MGHHHHHHIEGRNLPEHWTDMNHQLFCMVQLEPGQSEYNTIKDKFTRTCSSYAIEKIERIQNAFLWQSYQVKKRQMDIKNDHKNNERLLFHGTDADSVPYVNQHGFNRSCAGKNAVSYGKGTYFAVDASYSAKDTYSKPDSNGRKHMYVVRVLTGVFTKGRAGLVTPPPKNPHNPTDLFDSVTNNTRSPKLFVVFFDNQAYPEYLITFTA
notes: The catalytic domains of PARP15 (residue 481-678); His6 (N); Factor Xa cleavage site (IEGR) (N); made in house; host or cells: E. coli BL21 (DE3)
On to B1, for which, in series [1], the Km is 4.5 ± 2.9 µM and the catalytic constant (kcat) was 0.000183 ± 1.7e-05 s⁻¹. The Km in series [2] was 7.148 ± 3.138 µM.
